The data set deals with TDP-43 RRM1-2 WT (UniProt Q13148 102-269). The data set can be described thus: BLI; EMSA: 5 ug total lysate in RIPA with RNase inhibitor, 2 ug tRNA, 1 uM unlabelled (GU)x6 and 2.5 nM biotin-(GU)x6, 30 min room temperature, 6% native PAGE; BLI buffer not given in the material (protein purified in phosphate buffer pH 7.2). As to conditions: protein: recombinant; tags: 6xHis-SUMO removed by TEV.
Chain of TDP-43 RRM1-2 WT (Q13148 102-269): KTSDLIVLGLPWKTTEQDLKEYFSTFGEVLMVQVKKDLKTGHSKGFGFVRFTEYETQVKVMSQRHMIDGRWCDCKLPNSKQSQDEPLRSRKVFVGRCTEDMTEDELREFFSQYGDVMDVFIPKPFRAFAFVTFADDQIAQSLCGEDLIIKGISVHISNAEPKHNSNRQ

As for GUGUGAAUGAAU (ssRNA) [AUG-RNA], the Kd is 3.2 ± 0.9 nM.
